Target: T1, Trm7-A26P-PT (S. cerevisiae, UniProt P38238 1-310, A26P)
T1 sequence (looked up): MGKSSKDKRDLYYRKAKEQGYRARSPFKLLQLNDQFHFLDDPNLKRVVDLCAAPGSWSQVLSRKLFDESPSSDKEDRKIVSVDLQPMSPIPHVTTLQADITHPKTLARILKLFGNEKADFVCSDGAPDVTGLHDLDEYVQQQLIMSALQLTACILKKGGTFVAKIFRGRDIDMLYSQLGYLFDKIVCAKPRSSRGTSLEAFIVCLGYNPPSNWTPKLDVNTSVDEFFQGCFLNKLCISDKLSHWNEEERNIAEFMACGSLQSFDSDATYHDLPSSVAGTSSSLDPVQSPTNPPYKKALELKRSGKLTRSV
Experiment: pull-down

fold of Trm734-9myc pulled down against Trm7-MORF from a CEN plasmid: ~10 fold
B1: Trm734-9myc (natural protein, S. cerevisiae, UniProt Q08924 1-1013, looked up)
chain: MKDLSHYGPALCVKFYNDYVLAGYGPFIHVYDYHSATLINKCRLFHYNKVHGLSLSSEGKILAYGARSVTIVELEDVLKKESLVDFERINSDWITGATFSFDNLQIYLLTCYNKVLICDLNCEVLFRKSLGGERSILYSGIIKVFGPDKVYVNAGTVMGGVIIWDLFSETKIHNLLGHEGSIFYVNLSNNGRYVASCSDDRSIRLWDLETGKQLSVGWSHTARIWNLMFFDNDSKLISVSEDCTCRVWNIIESRENVAELSISNVYEVHLIKSIWGVDVKDDEMIAVTSGNDGRLKLIDLLQLKRHGDEETSFSLDDIAKQCGDIFEKNESIKGFQWFSFGVIAITSLGKILKYSDVTKQWKLLLTNEKFNSYPITNGIQTQNIAVFSNNKSDILLIKFSKDSADIIETEEFHLDELSKTNNCLVTEYDDDSFLLTLQSPNPREKFVCLEISLQNLKIKSKHCFNKPENFSSSCLTSFRNHILVGSRFSTLVIYNLLDESEEPFIIRRLSPGDTTTSIEFVEDKDNSAVFSVTNRDGYYVFIELTKNSLEEGPYRLSYKVLHSNKMMKGFLEGAFFNSKGEYITYGFKSSLFYLYNETNCYELASEVCGGSHRLWNLAKITDGHVLMYIKASRFHLRKIYNSIVPETLENGVHGREIRDISICPVSNTNTNDNFKDGHIFCTASEDTTIKLGYFNNRTGKVQNFWTQRKHVSGLQRCQFINHKLMISSSAREELFLWELNDKYNKRPYMTIRQALPVSTNNSDLRIMDFDVKFISQSGDFLLVTVYSDSTIKIWHYRENQNKFDLIMQGRYKTCCLFNVVFIALKEELLVVISPTDGHLVVYNITEYVPFSVDPISGDLVDHKLDATISNLPAPVAQLPVHQSGVKSLDYVANATRTSATILTGGDDNGLGLSNLKLDDSNKVTLKTSDFIAAAASSTITSGMLINGGKEVITTSVDQVIRAWEITAGKLSLVDKKRTTVADTGSLEIISNDEDADSEKTLLIGGVGLSIWKK

— article PMC4643400 (Human mutation, 2015)
